B1: TPR t1 (parent)
chain: GACCAAUCUGCCCUCAGAGCUCGAGAACAUCUUCGGAUGCAGAGGAGGCAGGCUUCGGUGGCGCGAUAGCGCCAACGUCCUCAACCUCCAAUGCAUCCCACCACAUGAUGAUGCCUGAAGAGCCUUGGUUUUUUG

Variants of: B1
Assay: polymerase ribozyme fitness, log enrichment relative to wild type (log ratio); higher = more active; in vitro selection for triplet polymerase activity
In short: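 Only genotypes with ≥10 input reads and ≥1 read per output were kept after Illumina sequencing of input and output libraries. These libraries were PCR-built, transcribed mutants of each subunit of a heterodimeric triplet polymerase ribozyme, each put through one triplicate in vitro selection round with frozen incubation at −7 °C, gel excision of extended constructs, streptavidin-bead capture and RT-PCR. Fitness is a logarithmic ratio of genotype enrichment to wild-type enrichment, from inverse-variance-weighted replicate averages, with the logarithm in base 2.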

| Variant | polymerase ribozyme fitness (log ratio) |
| --- | --- |
| A103G U112G | -4.71 |
| C97A C114U | -5.03 |
| C101G C102A U130C | -4.99 |
| C97U U116G | -2.81 |
| C94G U109A | -6.28 |
| C101A U132A | -0.824 |
| C104U G120C | 0.802 |
| C98U G110C | -4.91 |
| C98U G110A | -2.39 |
| C102A A121U U131C | 0.0525 |
| C101G G122C C124A U126A | -3.82 |
| C101G U133G | -2.02 |
| A100C C101G C104A C124A | -3.18 |
| C98G G120C | -3.19 |
| C99A U112G C114U | -6.6 |
| U96C A100U | -1.08 |
| C102U A119G | -0.237 |
| C104U C115A | 0.0102 |
| C104U C115G | -1.22 |
| A95G C104A U109C C114U C124A | -2.73 |
| C97G G127U | -3.75 |

| Variant | polymerase ribozyme fitness (log ratio) |
| --- | --- |
| C94U C101A | -1.52 |
| C104G G113C | -6.7 |
| A100U U129A | -0.992 |
| A103C C123A C124A | -3.52 |
| C104A A108G U112A A118G G122U | -5.36 |
| A95G C102U | -1.91 |
| C101A G107U U112G | -6.92 |
| C104A U112A | 0.162 |
| C101A G117U G122A U125A | -4.5 |
| C101G G127U | -2.83 |
| A103C G107A U112G G113A | -6.72 |
| C99A U112A G120A | -5.93 |
| U96G C102G C124U U125A | -6.03 |
| C99U G117U | -3.93 |
| C97A U112C | -2.11 |
| A95U G113U U125A | -3.81 |
| U96C U106A | -1.43 |
| C102A C123G | -0.232 |
| C101G G120C | -0.696 |
| U96A U125G | -1.93 |
| U96A U112C G127C | -0.056 |

| Variant | polymerase ribozyme fitness (log ratio) |
| --- | --- |
| C101A G113A | -2.4 |
| C94U | -0.383 |
| C94A | -0.804 |
| C94G | -0.92 |
| C98U G117C | -5.29 |
| U96A C98U | -3.4 |
| C99U U133A | -2.99 |
| C101U G135U | -1.68 |
| A103C C104A | -2.67 |
| C99A C123G | -4.92 |
| C102A U125G | -2.8 |
| U96G C102A G127C | -3.73 |
| A95G C123G | 1.72 |
| C104U G113C C123A | -3.61 |
| C101U U109G A111U | -4.63 |
| C97G | -4.4 |
| C97U | -0.53 |
| C97A | -4.67 |
| C97U G113A | -1.5 |
| C98A C104U | -4.88 |
| U96A C123G | 0.707 |

| Variant | polymerase ribozyme fitness (log ratio) |
| --- | --- |
| U96C A118U | 1.27 |
| A100C C104U | -0.176 |
| C98U U116C | -1.99 |
| A100C G110C | -4.94 |
| C97U A119U C123A | -1.43 |
| A95G C98U G113A A118G | -3.57 |
| C104A U116A | -5.02 |
| C98A U112G | -5.66 |
| A103C U132A | -4.12 |
| C94U G107A | -4.87 |
| A95U A119U U125A G127U | -2.7 |
| C94U G120C | 0.688 |
| A103U U106G | -4.14 |
| C101U U106A | -0.286 |
| A103U U132A | -5.02 |
| C102U A121G | 0.0036 |
| C101G C124G | -0.536 |
| C94A G127U U134G G135U | -2.31 |
| A95C C101U U106A | -0.358 |
| C104A G122A | -2.31 |
